# Earlier results, collected in patent US10562850B2, “Human plasma kallikrein inhibitors” (priority 2015, dated 2020).
# B1: C1-inhibitor: a physiological inhibitor (C1-inhibitor) (protein, UniProt P05155 23-500, looked up)
# Plasma protease C1 inhibitor: NPNATSSSSQDPESLQDRGEGKVATTVISKMLFVEPILEVSSLPTTNSTTNSATKITANTTDEPTTQPTTEPTTQPTIQPTQPTTQLPTDSPTQPTTGSFCPGPVTLCSDLESHSTEAVLGDALVDFSLKLYHAFSAMKKVETNMAFSPFSIASLLTQVLLGAGENTKTNLESILSYPKDFTCVHQALKGFTTKGVTSVSQIFHSPDLAIRDTFVNASRTLYSSSPRVLSNNSDANLELINTWVAKNTNNKISRLLDSLPSDTRLVLLNAIYLSAKWKTTFDPKKTRMEPFHFKNSVIKVPMMNSKKYPVAHFIDQTLKAKVGQLQLSHNLSLVILVPQNLKHRLEDMEQALSPSVFKAIMEKLEMSKFQPTLLTLPRIKVTTSQDMLSIMEKLEFFDFSYDLNLCGLTEDPDLQVSAMQHQTVLELTETGVEAAAASAISVARTLLVFEVQQPFLFVLWDQQHKFPVFMGRVYDPRA
# Columns and labels:
# [1] = test system: mouse model of middle cerebral artery occlusion (MCAO); conditions: cited from earlier work
# sepsis patients = conditions: cited from earlier work
molecule,measurement,setting,value
B1,infarct size,[1],reduced infarct size
same,clinical outcome in sepsis patients,sepsis patients,Clinical improvement was observed
